Data taken from patent US20230296621A1 (CHAN ZUCKERBERG BIOHUB, published 2023).

B1: C004 IgG (antibody, V domains shown)
VH: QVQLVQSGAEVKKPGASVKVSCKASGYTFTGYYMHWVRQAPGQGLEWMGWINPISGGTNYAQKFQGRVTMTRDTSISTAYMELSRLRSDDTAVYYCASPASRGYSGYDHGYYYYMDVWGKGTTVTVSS
VL: AIRMTQSPSSLSASVGDRVTITCQASQDISNYLNWYQQKPGKAPKLLIYDASNLETGVPSRFSGSGSGTDFTFTISSLQPEDIATYYCQQYDNLPITFGQGTRLEIKR
notes: also called recombinant anti-S-RBD antibody C004
B2: C105 IgG (antibody, V domains shown)
VH: QVQLVESGGGLIQPGGSLRLSCAASGFTVSSNYMSWVRQAPGKGLEWVSVIYSGGSTYYADSVKGRFTISRDNSKNTLYLQMNSLRAEDTAVYYCARGEGWELPYDYWGQGTLVTVSS
VL: QSALTQPPSASGSPGQSVTISCTGTSSDVGGYKYVSWYQQHPGKAPKLMIYEVSKRPSGVPDRFSGSKSGNTASLTVSGLQAEDEADYYCSSYEGSNNFVVFGGGTKLTVLG

Biological target: SARS-CoV-2 Spike receptor binding domain (SpikeRBD, aa 328-533) (SARS-CoV-2, UniProt P0DTC2 328-533)
Assay: BLI on immobilised biotinylated Spike-RBD

| Binder | binding result |
| --- | --- |
| B1 | binds |
| B2 | binds |
